From the DeepSol protein solubility set come the findings set out here.

The nature of this series: soluble on expression in E. coli; label from the status in PepcDB or PDB records.
As to “MQENQQITKKEQYNLNKLQKRLRRNVGEAIADFNMIEEGDRIMVCLSGGKDSYTMLEILRNLQQSAPINFSLVAVNLDQKQPGFPEHVLPEYLEKLGVEYKIVEENTYGIVKEKIPEGKTTCSLCSRLRRGILYRTATELGATKIALGHHRDDILQTLFLNMFYGGKMKGMPPKLMSDDGKHIVIRPLAYCREKDIQRFADAKAFPIIPCNLCGSQPNLQRQVIADMLRDWDKRYPGRIETMFSAMQNVVPSHLCDTNLFDFKGITHGSEVVNGGDLAFDREEIPLQPACWQPEEDENQLDELRLNVVEVKLEHHHHHH”, the “soluble on expression in E. coli” value is “not soluble”.

With “MSEEKKDSSRPPVRNYLKQIDDFFEQTPLRNVIADLNHFFQKGNRLLTFPVDLYEVGEELVVTAELPGIQKEQIQIEIQSEYLKVSVKEEILEEEEQTSHNYYRRERSISEASRLIKLPYSINKKAAKASYQNGVLEIRAPKLPQQHDILSID”, the “soluble on expression in E. coli” value was “not soluble”.

With “SNGSSVASTSPSVKCKEDQGLNGHEEKENPFAEYMWMENEEDFNRQVEEELQEQDFLDRCFQEMLDEEDQDWFIPARDLPQAVGHLQQQLNGLSVGDSHESEDILSKSNLNPDAKEFVPGVKY”, the “soluble on expression in E. coli” value is on record as “soluble”.

In the case of “GPGSMSLVESQKGMTDLIPCNEQCGGDYGNYSFGQGDLDVTVTVPLPENTTKKMLLVQITASKLIVGLRGKPPIISGDFYRPVKASECTWCIEDKRLLVINMVKTNSQHEEWWPCVVVGERQIDMKTLKPPSKHVSELDESAQATIAKMMFDQRQKMQNLPTSEEMRLQEMMRAAQGAK”, the “soluble on expression in E. coli” value is given as “soluble”.

Regarding “PRKRFIYLERKISPAMASYIKELKIPGIHLRKESKRFYPTGEISAHLIGFTNVDDKGIEGIERMYDDLLTGTGGAKRFRKDAKGRKIEIISVEEPEQAQDITLSID”, the “soluble on expression in E. coli” value was “not soluble”.

With “MPPKPKKSTGAKKKVSKLNKRPSKISVVSVNERSKNERSVMQSIEQEEATNNEIVPTPKKTTAQIAQQPTPTLPQIIAKQEPEVAMKTMMLPPPSDPPPPPPPVAPHQPPPQLATSAQPPQPPVINSQLPRMSPAPAIPPSMAQPLLQSPSPGADIAIRRPSKEKTDEKSVDETGGSDKKKRTEVICSWIRLVLQNGVAGLKKEYRDSPNEAPEDIATSFLGNPTRNRYRNIPCCDITRVKLTDDPHFYIHANLVSSGPNPRRFICTQAPLNGTIEEFWKMIIVTGIEYIVMLCELVEKGKPKSAEYFPSQIGQTTKIGRLCTVTKESRVDIDKTLVMSTMRISKPGDNAVVKIVKHIHWRNWPDHGVPDNFLSPFRLLTVVKNCTKPIVVHCSAGVGRTGTLALILIILESICLPDFIGVPRLLAKLREERFRAVQTEMQYLYAHRCVLEYLALKKYVQSREDFAKFAKDYEQALAMCPKEA”, the “soluble on expression in E. coli” value is “not soluble”.

In the case of “MLEALKTANKTVGMKQSLKAVESLKAKQVFIAKDADEHVVARIKELCIKNNIPIVYVDTMKQLGKACNIDVGASVACLL”, the “soluble on expression in E. coli” value is recorded as “not soluble”.

Regarding “MASLYLGLGFLVSMHSTKPEKADIIVILGGDDGLRVSKGGDLYKAGYAKHVLLTGIDSRYYRPNHPNWRERKLMARGVPRKHIIVDTWSETSWEEAENTSDLMDKNGWKSALVVSDPPHMLRLNKTWKKAFAGTNKRFRLVATEPSWWNPLLWWRNPISYRFVINELKKNIYYLVTYYLEHHHHHH”, the “soluble on expression in E. coli” value is on record as “not soluble”.

On to “MSLETWYDFDLPLDRTDPITIIHFNDVYNIESRCDGTGGVSRFVTALQSFQHKHPLILFSGDVLNPSVMSTYTRGRHMVPFLNLLKIHTACFGNHDFDFGIDELEYAVGSCSFPWLISNVFEKTGQTGLPLANGMKYRLFEWQGIRVGIIGLVEKEWLDTLACIDKDDVVYVDFVEAANCLCRILRQKECELIIALTHMRAPNDERLAKEAEDIDLILGGHDHDYYGLQRIGNIPVVKSGTDFRDFTVITIHPGQGSRLDASSLPTPPTQNKFGSTTFVSEEAARREAAVTAEMFKGPLLPTTVEGGEEVMPFFLGGSIVEWSRVRVDPERFEKNKHVELLVKKYEQNLKKQMKQILVDAACDLETRFSVIRTSESNVGNWLCDLMRRECRADIAILNSGTIRSDCLFPPGPFRFGDLAAMLPMTDTLCVIAVHGNVLLQALENAVSQLPKTEGRFLQVAGIRFAFNSSKPVGQRVVRDSVKVAQDACGRVHSGAATPVGEGKKSESDYLPLDENRVYSVATKTYLAQGRDGFHMLSKCPVLVEDELLPPLPTMVRSALSMAEMANGIKRPHSRITFKRLTEGHHHHHH”, for which the “soluble on expression in E. coli” value was “not soluble”.

Turning to “MAHHHHHHMNDSISSPIKATCRDMALKSSLHSFTFSLKDFDIAGFLGDGAHGSVFLACERRTNFICVLKCISKSHLVKSTQEALLRKEIELQAHLKHPHIACMYTWFHTSSHVFFVMEYCSNGDLFTYLNENGPFCEKKVAEMLFEIIWAIRTCHDKRIAHLDLKPENVLVNHEEKCKLADFGLSAHIGSKHKKKGISHYRGTHDYWSPEQCARHQKKKQNFGEFDQKTDIWTLGILAFELKFGRPPFGSTNEERENVIMNRIQDYHWSQLFCEKVKQDLIDKLSPEFKDFLNLCLDKNPKKRPTAESLIQHPFIFIHNKNRSCIKSYATQPRGKQGPKLSHKGFNEQDGSFLTPIWFHNK”, the “soluble on expression in E. coli” value is recorded as “soluble”.

Regarding “MRRIDMRSWIQNTKKLLPDLLPVMQTRMQILQYIRLMQPIGRRNLSASLGMTERVLRSEVQVLKEQNLVHVASSGMTLTEEGTALVLALEDFMKEISGLKVLEKQLKETLDLDEVFVVPGDSDESPWVKLEMGRACVTCIKDRLTANNIVAVAGGTTLAAAADMMQLDCKDLHMLFVPARGGIGEGVELEANTICAKMAQNTMSNYRLLYVPDHVSSEAYASIVTEPSVKEVLELIRSSNIVIHGIGDALTMARRRSTSEADWLKIQASEAVGEAFGYYFNEEGNVVHKVRTVGMQLEDLQNVSHVVAVAGGSSKAKAIQAVIKQGHTSILITDEGAAKQLTKGFTL”, the “soluble on expression in E. coli” value is “not soluble”.

Consider “MHHHHHHGKPIPNPLLGLDSTENLYFQGIDPFTKAYAFGFPKIGEKREFKKALEDFWKGKITEEQFEEEMNKLRMYMVENYRKNVDVIPSNELSYYDFVLDTAVMVGAVPERFGEYRGLSTYFDMARGGKALEMTKFFNTNYHYLVPEIETEEFYLLENKPLEDYLFFKSKGIETAPWVIGPFTFLYLSKRNGEWIRRPNQMEKLLESLVSVYKEVFEKLVENGCKEILVNEPAFVCDLEKAHWDLILNVYRELSEFPLTVFTYYDSVSDYEACVSLPVKRLHFDFVSNEENLKNLEKHGFPEDKKLVAGVINGRQPWKVDLRKVASLVEKLGASAISNSCPLFHLPVTLELENNLPGGLKEKLAFAKEKLEELKMLKDFLEGKTFDLPNVSFEDFAVDLQAVERVRNLPEDSFRREKEYTERDRIQRERLNLPLFPTTTIGSFPQTPEVRKMRSKYRKGEISKEEYEAFIKEQIKKAIELQEEIGLDVLVHGEFERTDMVEFFAEKLNGIATTQNGWVLSYGSRCYRPPIIYGTVTRPEPMTLKEITYAQSLTEKPVKGMLTGPVTIMSWSYYREDIPEREIAYQIALAINEEVKDLEEAGIKIVQIDEPAFREKAPIKKSKWPEYFEWAINAFNLAANARPETQIHAHMCYSDFNEIIEYIHQLEFDVISIEASRSKGEIISAFENFKGWIKQIGVGVWDIHSPAVPSINEMREIVERVLRVLPKELIWINPDCGLKTRNWDEVIPSLRNMVALAKEMREKFES”, for which the “soluble on expression in E. coli” value is on record as “soluble”.

Take “MKVIIFYTKTGGGHLSACKSLEESLNSMNIPVVTLDSLEFAGHLVSKEICSAYNYIVKSVPELFGALYNAGEKISDHNKKSIIYKLNSFYADNILTVLEEEQPDIIISTHIFATQSLSYLKQKNKVKALTASIVTDYTCAPFWEETDLDYYFLPHKDLIKEFKDKGLDSSKLIAFGLPIDSKFKVKTPKEKAKFNLALKKDKPHILIMGGSMGAGSVKDTTLYISKHLKECNITTICGNNKELFKEISEIKKSNPKIHVLQFTHEMNELMDSADILITKPGGLTSTEAMNKSLPIIMINPIPGVESANCNFFMKHNLGIKSNSLHETLKVCEKLISDKNFYEKIVSSQKLNSNINAAEDICKFLITKYHEIQYNSDNNSLLEHHHHHH”: the “soluble on expression in E. coli” value is listed as “soluble”.

On to “MTLHELLEKPVWKMTGEELLFLAQQGSTQQEGDTQDKAPAKEERHFVYGLSGLARLFGCSLPTANRIKQSGKIDRAITQIGRKIIIDADLALELAGRKVGGRR”, for which the “soluble on expression in E. coli” value was “not soluble”.

Regarding “MRAQDLPPLPETPGVYLWKRGEEVLYVGKAKSLRARVKSYFHAEGKARRIAEEATGLDFIATRDEVEALLLEANLIKAHRPLYNVLLKDDKHYPFLKLTNEPFPTLLVVRRVEEDGAKYYGPFPEAGALRRIKTLIDRLFPLRKNSGYPMKRRRYPCLNYSMGRCLAPCVGKADPEAYQEVVRQVEAVLEGRVDGLLQELEAKMREAARRLEFERAAEIRDQMEALRAFFSTDQQAFDPEMGDLDFLGMARSGALAVVQLYQVRSGRILGRISRVVEKEEATDEEILWAFLRDHYLEASPLPPLVLLPFPLEDLESLAELLKRRAGRKVELRVPKKGEKARLLELAERNARLALETELKLRERRGEHPALKALQDLLGLPARPWRLEGYDISHLQGQARVFSIAVFEGGRPKRQEYRRMRLKAGNDDYAAMEEGVFRRYTGSLKDLPLPDLLLIDGGVGQVRAAARALERAGLRLPLVGLAKGEEVLVTPEGRELRLPLTHPALQLLIHLRDEAHQNGLRYHRKRRSEELFRVLQGIPGIGEKRRRLLLERYGGLRALKEAPLEELARLPGMSLEAARALKAALAEEEPA”, the “soluble on expression in E. coli” value is given as “soluble”.

For “MTQNHSASLLVELLTEELPPKALARLSDAFAEGIAQRLAARDLIEGELAFERYATPRRLAVVVQNVRAVAPERQVREKVLPVSVALDAQGKPTAPLAKKLAALGHPNLSIADLERAHDGKAEAFFVNYASPGATLAEGLQAALDETLAKLPIPKVMTYQRPDGTDVQFVRPVHRLSALHDDRIVPVCAFGIDAGDTTLGHRFLSDGLVAIQHANAYADTLRDKGRVLAHFAGRKEAIRAQLEANAGGDQVVMPEALLDEVTSLVEWPVVYPCRFEDEFLQVPQECLILTMQTNQKYFALTDAAGKLRSRFLIVSNIETKTPDEIVEGNERVVRPRLADAKFFFEQDKKKPLADRVPLLANVVYHNKLGSQLARIERLETLAGEIAPAIGADATVAIRAARLAKADLLTDMVGEFPELQGTMGTYYARHDGEAEDVAIACSEHYQPRFSGDALPTTPVSTAVALADKLETIVGIWGIGLAPTGEKDPFALRRHALGVLRLLLEKQLPLDLVWLLRTTYERFAAVPDVAESTDAIHAFFVERLRGLLRERGYTAGEVDAVLSLNPTR”, the “soluble on expression in E. coli” value is listed as “not soluble”.

For “MGSDKIHHHHHHYRPLFDKDLSNADYDSSVWTFKNGILTATADQSIWTKVQYENFILDLEFKTDVNTNSGVVIYCTDKGNWIPSSIEIQIADDHHPEWQSYPEYWRCGSIYGHKGANEQLVVKKPGEWNRMIITAKGQQIDIELNGKHIVSANLADWTSGTTNPDGTEIPEWLPIPYANMPTKGYIGLQGKHGESNIWFRNIQLKQL”, the “soluble on expression in E. coli” value was “not soluble”.

With “MSLKAVIFDMDGVLIDSEPLHLDYAFKLFKELNITMTPNEYSKFIGTTSLYMWSNIKDTYNLENTVESLINKERNGFFEFLSSPNTNIKPIDHIPELLGALKENNFKTAVASSSPMRVIKYIINNFELAKQFNELVTGDYVERSKPNPDIFLYAAKKLDVSPEQCVVIEDSHNGVLAAKNAGMKCIGFKNPNSGNQDLSKADTIIHSFNEIDILNEGHHHHHH”, the “soluble on expression in E. coli” value was “soluble”.

As to “SAPSQAPSRDRAGQEDEDRWEARGDRKARKPLVEKKRRARINESLQELRLLLAGTEVQAKLENAEVLELTVRRVQGALRGRAREREQLQAEASERFAAGYIQCMHEVHTFVSTCQAIDATVSAELLNHLLESMPLREGSSFQDLLGDSLAGLPGGSGRSSWPPGGSPESPLSSPPGPGDDLCSDLEEIPEAELNRVPAEGPDLVSTSLGSLTAARRAQSVWRPW”, the “soluble on expression in E. coli” value is recorded as “soluble”.
